Values of other authors, collected in patent US20210079079A1, “SYSTEMS AND METHODS FOR LOCAL MODULATION OF WNT SIGNALING” (Ortheus, Inc., priority 2018, published 2021).

Details: in vivo; cited from earlier work

DKK1: a secreted protein that inhibits canonical Wnt signaling
elimination half-life: less than 30 minutes
